Reference: paper PMC7229167, “Atypical chemokine receptor ACKR2-V41A has decreased CCL2 binding, scavenging, and activation, supporting sustained inflammation and increased Alzheimer’s disease risk” (Scientific Reports, 2020)

Columns and labels:
[1] = target: T1, Atypical chemokine receptor 2, wild type (ACKR2-WT) (human, UniProt O00590 1-384); test: flow cytometry on cells; competition: transfected CHO-k1 cells incubated with unconjugated chemokine at 37 °C for 45 minutes, then stained with anti-human ACKR2 polyclonal IgG and PE secondary; blockage = 100 minus percent of ACKR2-positive cells; titration with non-linear analysis for Kd; conditions: one partner purified
T1 construct: Atypical chemokine receptor 2 (ACKR2), human, wild type allele, expressed on the surface of CHO-k1 cells; also called CCBP-WT; source: CHO-k1 cells, transfected (lipofectamine), G418 selected, enriched with anti-PE MicroBeads; on cells
T1 sequence (looked up): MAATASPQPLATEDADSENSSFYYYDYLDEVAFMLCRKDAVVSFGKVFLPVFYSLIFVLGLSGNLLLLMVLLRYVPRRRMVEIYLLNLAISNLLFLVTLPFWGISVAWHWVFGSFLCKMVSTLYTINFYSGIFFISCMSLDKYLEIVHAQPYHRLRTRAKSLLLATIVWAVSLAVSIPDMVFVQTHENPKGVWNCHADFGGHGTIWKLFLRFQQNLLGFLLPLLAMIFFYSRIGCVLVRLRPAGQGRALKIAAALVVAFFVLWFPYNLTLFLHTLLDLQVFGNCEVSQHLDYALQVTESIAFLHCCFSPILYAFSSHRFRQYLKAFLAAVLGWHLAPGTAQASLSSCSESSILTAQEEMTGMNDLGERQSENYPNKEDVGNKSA

[2] = target: T2, Atypical chemokine receptor 2 variant V41A (ACKR2-V41A; rs2228467) (human, UniProt O00590 1-384, V41A); test: as above; conditions: one partner purified
T2 construct: Atypical chemokine receptor 2 (ACKR2), human, natural variant V41A (rs2228467), expressed on the surface of CHO-k1 cells; also called ACRK2-V41A; source: CHO-k1 cells, transfected (lipofectamine), G418 selected, enriched with anti-PE MicroBeads; on cells
T2 sequence (looked up): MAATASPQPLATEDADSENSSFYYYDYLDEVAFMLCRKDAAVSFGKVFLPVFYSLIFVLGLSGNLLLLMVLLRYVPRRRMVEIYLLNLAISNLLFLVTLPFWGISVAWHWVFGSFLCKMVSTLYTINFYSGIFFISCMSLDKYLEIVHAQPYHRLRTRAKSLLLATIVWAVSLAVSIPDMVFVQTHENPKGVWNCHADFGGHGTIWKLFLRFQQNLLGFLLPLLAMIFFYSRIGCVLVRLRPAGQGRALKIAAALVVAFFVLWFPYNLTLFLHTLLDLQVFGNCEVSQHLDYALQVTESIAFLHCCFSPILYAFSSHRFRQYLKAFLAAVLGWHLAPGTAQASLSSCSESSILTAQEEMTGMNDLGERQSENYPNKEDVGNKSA

B1: Chemokine ligand 4 (CCL4), unconjugated (ligand, UniProt P13236 24-92, looked up)
chain: APMGSDPPTACCFSYTARKLPRNFVVDYYETSSLCSQPAVVFQTKRSKQVCADPSESWVQEYVYDLELN
notes: Chemokine ligand 4 (CCL4), unconjugated; also called unconjugated CCL4; source: bought: PEPROTECH, Cat #300-.9
Kd [1]: 600 nM
Kd [2]: 2030 nM
